Assay [1] concerns the target CD34 antibody 9069 (9C5) coated on M-450 Dynabeads. The assay is described as follows: cell-based or functional assay.
Assay [2] has as its target biotinylated 9C5 antibody (anti-human CD34 monoclonal antibody, biotinylated with Biotin Hydrazide). The assay is described as follows: cell-based or functional assay.

“And” between values parts separate entries of the source, which are not always exact repeats. Identical values can stand only once.

B1: free PR34+ peptide Ac-QQGWFPKD (peptide)
peptide: QQGWFPKD
modifications: N-terminal acetyl (printed Ac-QQGWFPKD)
With B1, in assay [1], the % Yield, released with PR34+ 2.5 mg (beads with 1 µg antibody per 10^8 beads) turned out to be 55.9%; the % Yield, released with PR34+ 2.5 mg (beads with 5 µg antibody per 10^8 beads) turned out to be 68.9%; the % Yield, released with PR34+ 2.5 mg (beads with 20 µg antibody per 10^8 beads) amounted to 47.4%; the % Yield, released with PR34+ 2.5 mg (beads with 50 µg antibody per 10^8 beads) came out at 57.5%. Further, in assay [1], the release of Camma cells from anti-CD34-coated Dynabeads is greater than 75% and the yield of Camma cells after release with PR34 peptide was greater than 70%. Moreover, in assay [2], the % SUP-T1 Yield (tube 2, cells released with free PR34+ peptide) is 43%; the % SUP-T1 Yield (tube 3, cells released with free PR34+ peptide) is 31%; the % T-cells released with 9069N 2.5 mg (CD2-9069N 1 µg, b-9069 1 µg) amounted to 71%; the % T-cells released with 9069N 2.5 mg (CD2-9069N 1 µg, b-9069 10 µg) is 87% and 65%. Also, in assay [2], the % T-cells released with 9069N 2.5 mg (CD2-9069N 5 µg, b-9069 1 µg) was 61% and 56%; the % T-cells released with 9069N 2.5 mg (CD2-9069N 5 µg, b-9069 10 µg) is 50%; the % Yield of CD8+ cells (condition 3, released with free PR34+ peptide) was 16%; the % Yield, released with PR34+ 2.5 mg (streptavidin coated Dynabead control) is 81.5%.

Source of the values: patent publication US20030219445A1.
